Paper doi:10.1101/489898

Target: horse liver alcohol dehydrogenase (horse)
Test: cryo-EM structure

horse liver alcohol dehydrogenase (enzyme)
stoichiometry N: 2
